Measurements from US6570069B1, “Nucleic acids encoding plant inhibitors of apoptosis and transgenic cells and plants expressing them” (priority 2000, dated 2003).
“Also recorded” adds a separate entry of the source.

Columns and labels:
[1] = system: Bax-induced apoptosis in HEK293 cells; experiment: Bax-induced apoptosis in HEK293 cells (co-transfection, DAPI nuclear morphology); assay type: cell-based, human; conditions: IAP plasmid co-transfected with Bax into 293 cells; % apoptosis 24-36 hours later
Experimental: HEK293 and 293T cells were maintained in DMEM (Irvine Scientific) supplemented with 10% fetal bovine serum, 1 mM L-glutamine and antibiotics. 293 cells (10^6) were co-transfected using Superfect with 0.1 μg Green Fluoresence Protein (GFP) marker plasmid pEGFP (Clontech), 0.25 ug of either pcDNA3-Bax or pcDNA3-Fas, and 1.5 μg of either pcDNA3myc-SfIAP or pcDNA3myc-CpIAP. Alternatively, cells were co-transfected with 0.35 μg pcDNA3-caspase-9-Flag and 2.1 μg of either SfIAP or CpIAP. […] In some cases, lysates were prepared from transfected cells, normalized for total protein content, and analyzed by SDS-PAGE/immunoblotting as described (Deveraux, Q., et al., (1997) supra; Deveraux, Q. L., et al. (1998) supra; Roy, N. et al. (1997) supra; Takahashi, R., et al., (1998), supra.).
Baculoviral IAPs have been reported to protect mammalian cells from some apoptotic stimuli (Hawkins, C. J. et al., (1996) Proc. Natl. Acad. Sci. USA 93, 13786-13790; Hawkins, C. et al., (1998) Cell Death and Differentiation 5, 569-576; Uren, A. G. et al., (1996) Proc. Natl. Acad. Sci. USA 93, 4974-4978). Tests were performed to determine whether SfIAP is also capable of functioning as an apoptosis suppressor in a mammalian cell context. […]
Plasmids encoding various IAPs were co-transfected with Bax or Fas into 293 cells and % apoptosis was determined 24-36 hours later.

[2] = system: recombinant active caspase-9; experiment: Enzyme inhibition assay with recombinant active caspase-9 and Ac-LEHD-AFC; assay type: biochemical, mammalian; conditions: Ac-LEHD-AFC substrate
Experimental: (§1) pGEX4T-1-SfIAP and pGEX4T-1 -CpIAP plasmids were introduced into E. coli strain BL21 (DE3) containing the plasmid pT-Trx. GST fusion proteins were obtained by induction with 0.05 mM IPTG at 25° C. for 8 hours, then purified using glutathione-Sepharose, essentially as described (Deveraux, Q., Welsh, K. & Reed, J. Methods of Enzymology in press). Caspases-3, and -7, containing C-terminal His6-tags, and caspase-8 containing an N-terminal His6-tag were purified as described previously (Stennicke, H. R. & Salvesen, G. S. (I1997) J. Biol. Chem. 272, 25719-25723; Stennicke, H., et al., (1998) J. Biol. Chem. 273, 27084-27090; Stennicke, H., et al., (1999) J. Biol. Chem. 274, 8359-8362). Caspase-9 lacking the CARD domain (ΔCARD-caspase-9) was constructed by truncating the cDNA and introducing a start codon substituting Val139. The resulting cDNA was subcloned into pET-23b and expressed in BL21 (DE3), yielding fully processed enzyme when cells were induced using 0.2 mM IPTG at OD600=0.6 for 4 hrs (Stennicke, H., Deveraux, Q., Humike, E., Reed, J., Dixit, V. & Salvesen, G. (1999) J. Biol. Chem. 274, 8359-8362). All expressed caspases were purified by Ni-chelation affinity-chromatography, as described (Stennicke, H., et al., (1999) J. Biol. Chem. 274, 8359-8362; Stennicke, H. R. & Salvesen, G. S. (1997) J. Biol. Chem. 272, 25719-25723; Stennicke, H., et al., (1998) supra). Concentrations of purified enzymes were determined from absorbance at 280 nm based on the molar absorption coefficients: caspase-3 (A280=26,000M−1 cm−1), caspase-7 (A280=24,500 M−1 cm−1), caspase-9 (A280=30,010M−1 cm−1).
Caspase activity was assayed by release of 7-amino-4-trifluoromethyl-coumarin (AFC) from Ac-DEVD or Ac-LEHD-containing synthetic peptides (Calbiochem) using continuous-reading instuments as described (Quan, L. T. et al., (1995) J. Biol. Chem. 270:10377-10379).
To directly examine the possibility that SfIAP and CpLAP inhibit caspase-9, enzyme inhibition assays were performed using bacteria-produced recombinant active caspase-9, recombinant-purified SfIAP and CpIAP, and Ac-LEHD-AFC as a caspase-9 substrate.

caspase-3 = target: T1, caspase-3 (Homo sapiens, UniProt P42574); experiment: Binding to recombinant purified caspase-3; set-up: species or system mammalian
T1 construct: His6 (C); made in house
T1 sequence (P42574 29-175 limits assumed): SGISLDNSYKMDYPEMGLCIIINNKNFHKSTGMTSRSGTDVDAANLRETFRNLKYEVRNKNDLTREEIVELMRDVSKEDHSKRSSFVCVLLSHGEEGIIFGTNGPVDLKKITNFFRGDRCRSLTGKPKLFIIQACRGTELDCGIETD
T1 sequence (P42574 176-277 limits assumed): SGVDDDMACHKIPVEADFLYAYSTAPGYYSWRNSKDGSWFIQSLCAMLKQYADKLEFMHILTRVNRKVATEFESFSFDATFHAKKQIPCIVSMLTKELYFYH
Experimental: as §1, with “All expressed caspases were purified by Ni-chelation affinity-chromatography, as described (Stennicke, H., et al., (1999) J. Biol. Chem. 274, 8359-8362; Stennicke, H. R. & Salvesen, G. S. (1997) J. Biol. Chem. 272, 25719-25723; Stennicke, H., et al., (1998) supra).” left out, “cm−1). […]” for “cm−1).”

caspase-7 = target: T2, caspase-7 (Homo sapiens, UniProt P55210); experiment: Binding to recombinant purified caspase-7; set-up: species or system mammalian
T2 construct: His6 (C); made in house
T2 sequence (P55210 24-198 limits assumed): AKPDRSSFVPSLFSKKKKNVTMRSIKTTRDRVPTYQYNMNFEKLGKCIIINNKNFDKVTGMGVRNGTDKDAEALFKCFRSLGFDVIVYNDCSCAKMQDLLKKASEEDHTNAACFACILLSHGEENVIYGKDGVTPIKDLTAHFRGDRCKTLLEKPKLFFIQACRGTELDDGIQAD
T2 sequence (P55210 207-303 limits assumed): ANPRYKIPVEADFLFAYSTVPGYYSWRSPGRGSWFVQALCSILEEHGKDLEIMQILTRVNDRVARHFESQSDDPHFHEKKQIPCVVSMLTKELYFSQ
Experimental: as §1, with “All expressed caspases were purified by Ni-chelation affinity-chromatography, as described (Stennicke, H., et al., (1999) J. Biol. Chem. 274, 8359-8362; Stennicke, H. R. & Salvesen, G. S. (1997) J. Biol. Chem. 272, 25719-25723; Stennicke, H., et al., (1998) supra).” left out, “cm−1). […]” for “cm−1).”

Molecule	suppression of Bax-induced apoptosis [1]	inhibition of recombinant active caspase-9 [2]	molar-excess relative to caspase-9 which produced ~50% inhibition of protease activity [2] [fold]	binding to caspase-3 (caspase-3)	binding to caspase-7 (caspase-7)
CpIAP: baculoviral (CpGV) inhibitor of apoptosis protein; complete ORF expressed myc-tagged or as GST-fusion (protein, left off: a dimerising Fc or GST, complete ORF expressed myc-tagged or as GST-fusion) MSDLRLEEVRLNTFEKWPVSFLSPETMAKNGFYYLGRSDEVRCAFCKVEIMRWKEGEDPAADHKKWAPQCPFVKGIDVCGSIVTTNNIQNTTTHDTIIGPAHPKYAHEAARVKSFHNWPRCMKQRPEQMADAGFFYTGYGDNTKCFYCDGGLKDWEPEDVPWEQHVRWFDRCAYVQLVKGRDYVQKVITEACVLPGENTTVSTAAPVSEPIPETKIEKEPQVEDSKLCKICYVEECIVCFVPCGHVVACAKCALSVDKCPMCRKIVTSVLKVYFS	inhibited Bax-induced apoptosis	inhibited recombinant active caspase-9 in a concentration-dependent manner; also recorded: direct inhibitors of mammalian caspase-9	12	neither bound	neither bound
SfIAP: cellular IAP cloned from Spodoptera frugiperda, protein of 377 amino acids (SEQ ID NO:3); GST-fusion when recombinant (protein, listed as Spodoptera frugiperda, GST fusion when recombinant; fall armyworm inhibitor of apoptosis protein (SfIAP)) MWSCSLPCWNTKKSGLQMDITKVASNGSSSTLTLFKSGSLEAKIRPLAPLMLPTPSYDSNAGSPSLSPSTPCSSSSFSIDKTDNHDTFGFSADTVDMRKEDERMKTFEKWPVSFLSGEQLARNGFYYLGRRDEARCAFCKVEIMRWVEGDDPAKDHQRWAPQCPFVRKLNGTAAADTGSSGQDECGARAAPSGTSPPRMAGPVHPRYASEAARLRSFKDWPRCMRQKPEELAEAGFFYTGQGDKTKCFYCDGGLKDWENHDVPWEQHARWFDRCAYVQLVKGREYVQKVISEACEVSASEAERDVAPARTAEPSPPAEAPENSVDDSKLCKICYAEERNVCFVPCGHVVACAKCALAADKCPMCRRTFQNAVRLYFS	inhibited Bax-induced apoptosis	inhibited recombinant active caspase-9 in a concentration-dependent manner; also recorded: direct inhibitors of mammalian caspase-9	8	neither bound	neither bound
